From patent US20050215478A1, “Amino acid sequences capable of facilitating penetration across a biological barrier” (priority 2002, published 2005)
Where “and” joins values, the source holds several entries; their conditions need not be identical. Identical values can stand only once.

Assay: Formulation development: recovery of ^125I-IBW-002 after intestine loop injection, urine included (Example 2)
Type: in vivo, mouse
Settings: intestinal loop; for recovered cpm/mouse: blood 60′, organs and urine; for blood 15′, total cpm in the blood / blood 30′, total cpm in the blood / blood 60′, total cpm in the blood / blood 5′, total cpm in the blood / blood 10′, total cpm in the blood / blood 20′, total cpm in the blood: calculated from 50 μl sample assuming 2 ml blood
Method: The mice were anesthetized by i.p. injection of 0.05 ml of a mixture of 0.15 ml xylazine+0.85 ml of ketamin. A 2 cm long incision was made along the center of the abdomen, through the skin and abdominal wall. An intestine loop was gently pulled out through the incision and placed on wet gauze beside the animal. The loop remained intact through the entire procedure and was kept wet during the whole time. The tested compound was injected into the loop, 0.2 ml/ mouse, containing around 200,000 cpm, using a 26G needle. […] The animals were subsequently sacrificed. The following organs were removed: epididymal fat, kidneys, liver, lungs and brain. Radioactivity in each organ and in blood samples was counted. A 5 μl sample of the injected solution was counted to determine the total injected cpm per mouse.
To reach an improved formulation, a number of compounds were tested in experiments similar to that described in Example 1, with the following change: urine was collected and the measured radioactivity was added to that of the recovered tissues. […]
The total radioactive labeling injected per mouse was 195,900 cpm. Total cpm in the blood was calculated based on the 50 μl blood sample drawn out at different time points post injection, in the assumption that total blood volume of each mouse is 2 ml.
The total radioactive labeling injected per mouse was 143,000 cpm. Total cpm in the blood was calculated based on the 50 μl blood sample drawn out at different time points post injection, in the assumption that total blood volume of each mouse is 2 ml.

[1] = Table 5 formulation (PE 6,200), 125,320 cpm injected per mouse, individual mice, listed as 125I-IBW-002
[2] = Table 5 formulation (PE 6,200), 125,320 cpm injected per mouse, mean of 2 mice
[3] = Table 8 formulation (PE 6,200 + Taurodeoxycholic acid), 195,900 cpm injected per mouse, individual mice, listed as 125I-IBW-002
[4] = Table 8 formulation (PE 6,200 + Taurodeoxycholic acid), 195,900 cpm injected per mouse, mean of 4 mice
[5] = Table 11 formulation (Pluronic F-68 + Taurodeoxycholic acid), 143,000 cpm injected per mouse, individual mice, listed as 125I-IBW-002
[6] = Table 11 formulation (Pluronic F-68 + Taurodeoxycholic acid), 143,000 cpm injected per mouse, mean of 4 mice

Ac-NYYDITLALAGICQSARLVQQLAGGGKGGK-NH2 (Ac-NYYDITLALAGICQSARLVQQLAGGGKGGK-NH2; also: 125I label) [IBW-002, ^125I-labeled using the Bolton Hunter Reagent for in vivo tests]
recovered cpm/mouse [1]: 35,759 cpm and 40,067 cpm | recovered cpm/mouse [2]: 37,913 cpm | blood 15′, total cpm in the blood [1]: 19,920 cpm and 19,560 cpm | blood 30′, total cpm in the blood [1]: 18,800 cpm and 15,880 cpm | blood 60′, total cpm in the blood [1]: 14,560 cpm and 10,960 cpm | blood 15′, total cpm in the blood [2]: 19,740 cpm | blood 30′, total cpm in the blood [2]: 17,340 cpm | blood 60′, total cpm in the blood [2]: 12,760 cpm | blood/injected cpm (%), 15′ [1]: 15.90% and 15.61% | blood/injected cpm (%), 30′ [1]: 15.00% and 12.67% | blood/injected cpm (%), 60′ [1]: 11.62% and 8.75% | brain, cpm recovered [1]: 95 cpm and 110 cpm | epididimal fat, cpm recovered [1]: 321 cpm and 288 cpm | kidney, cpm recovered [1]: 2,564 cpm and 3,799 cpm | liver, cpm recovered [1]: 2,994 cpm and 2,786 cpm | lungs, cpm recovered [1]: 476 cpm and 377 cpm | recovered cpm/injected cpm (%) [1]: 28.53% and 31.97% | urine, cpm recovered [1]: 14,749 cpm and 21,747 cpm | blood/injected cpm (%), 15′ [2]: 15.75% | blood/injected cpm (%), 30′ [2]: 13.84% | blood/injected cpm (%), 60′ [2]: 10.18% | brain, cpm recovered [2]: 103 cpm | epididimal fat, cpm recovered [2]: 305 cpm | kidney, cpm recovered [2]: 3,182 cpm | liver, cpm recovered [2]: 2,890 cpm | lungs, cpm recovered [2]: 427 cpm | recovered cpm/injected cpm (%) [2]: 30.25% | urine, cpm recovered [2]: 18,248 cpm | recovered cpm/mouse [3]: 93,914 cpm and 68,380 cpm and 89,969 cpm and 90,520 cpm | recovered cpm/mouse [4]: 85,446 cpm | blood 15′, total cpm in the blood [3]: 40,600 cpm and 39,440 cpm and 51,920 cpm and 36,200 cpm | blood 30′, total cpm in the blood [3]: 37,440 cpm and 31,720 cpm and 48,440 cpm and 34,720 cpm | blood 60′, total cpm in the blood [3]: 33,880 cpm and 23,080 cpm and 40,840 cpm and 30,200 cpm | blood 15′, total cpm in the blood [4]: 42,040 cpm | blood 30′, total cpm in the blood [4]: 38,080 cpm | blood 60′, total cpm in the blood [4]: 32,000 cpm | blood/injected cpm (%), 15′ [3]: 20.72% and 20.13% and 26.50% and 18.48% | blood/injected cpm (%), 30′ [3]: 19.11% and 16.19% and 24.73% and 17.72% | blood/injected cpm (%), 60′ [3]: 17.29% and 11.78% and 20.85% and 15.42% | brain, cpm recovered [3]: 206 cpm and 176 cpm and 284 cpm and 173 cpm | epididimal fat, cpm recovered [3]: 1,081 cpm and 805 cpm and 903 cpm and 846 cpm | kidney, cpm recovered [3]: 9,513 cpm and 7,878 cpm and 10,661 cpm and 8,929 cpm | liver, cpm recovered [3]: 8,194 cpm and 5,154 cpm and 9,615 cpm and 8,708 cpm | lungs, cpm recovered [3]: 1,048 cpm and 636 cpm and 1,221 cpm and 1,303 cpm | recovered cpm/injected cpm (%) [3]: 47.94% and 34.91% and 45.42% and 46.21% | urine, cpm recovered [3]: 39,992 cpm and 30,651 cpm and 25,445 cpm and 40,361 cpm | blood/injected cpm (%), 15′ [4]: 21.46% | blood/injected cpm (%), 30′ [4]: 19.44% | blood/injected cpm (%), 60′ [4]: 16.33% | brain, cpm recovered [4]: 210 cpm | epididimal fat, cpm recovered [4]: 909 cpm | kidney, cpm recovered [4]: 9,245 cpm | liver, cpm recovered [4]: 7,918 cpm | lungs, cpm recovered [4]: 1,052 cpm | recovered cpm/injected cpm (%) [4]: 43.62% | urine, cpm recovered [4]: 34,112 cpm | recovered cpm/mouse [5]: 78,079 cpm and 67,291 cpm and 64,828 cpm and 79,362 cpm | recovered cpm/mouse [6]: 72,390 cpm | blood 5′, total cpm in the blood [5]: 29,400 cpm and 29,120 cpm and 34,240 cpm and 32,920 cpm | blood 10′, total cpm in the blood [5]: 26,680 cpm and 32,320 cpm and 28,200 cpm and 27,760 cpm | blood 20′, total cpm in the blood [5]: 20,280 cpm and 30,960 cpm and 27,240 cpm and 21,800 cpm | blood 60′, total cpm in the blood [5]: 11,880 cpm and 22,840 cpm and 16,280 cpm and 14,440 cpm | blood 5′, total cpm in the blood [6]: 31,420 cpm | blood 10′, total cpm in the blood [6]: 28,740 cpm | blood 20′, total cpm in the blood [6]: 25,070 cpm | blood 60′, total cpm in the blood [6]: 16,360 cpm | blood/injected cpm (%), 5′ [5]: 20.56% and 20.36% and 23.94% and 23.02% | blood/injected cpm (%), 10′ [5]: 18.66% and 22.60% and 19.72% and 19.41% | blood/injected cpm (%), 20′ [5]: 14.18% and 21.65% and 19.05% and 15.24% | blood/injected cpm (%), 60′ [5]: 8.31% and 15.97% and 11.38% and 10.10% | brain, cpm recovered [5]: 76 cpm and 106 cpm and 94 cpm and 74 cpm | epididimal fat, cpm recovered [5]: 375 cpm and 591 cpm and 462 cpm and 465 cpm | kidney, cpm recovered [5]: 2,397 cpm and 4,407 cpm and 5,018 cpm and 5,772 cpm | liver, cpm recovered [5]: 3,516 cpm and 6,546 cpm and 6,561 cpm and 4,807 cpm | lungs, cpm recovered [5]: 393 cpm and 643 cpm and 582 cpm and 533 cpm | recovered cpm/injected cpm (%) [5]: 54.60% and 47.06% and 45.33% and 55.50% | urine, cpm recovered [5]: 59,442 cpm and 32,158 cpm and 35,831 cpm and 53,271 cpm | blood/injected cpm (%), 5′ [6]: 21.97% | blood/injected cpm (%), 10′ [6]: 20.10% | blood/injected cpm (%), 20′ [6]: 17.53% | blood/injected cpm (%), 60′ [6]: 11.44% | brain, cpm recovered [6]: 88 cpm | epididimal fat, cpm recovered [6]: 473 cpm | kidney, cpm recovered [6]: 4,399 cpm | liver, cpm recovered [6]: 5,358 cpm | lungs, cpm recovered [6]: 538 cpm | recovered cpm/injected cpm (%) [6]: 50.62% | urine, cpm recovered [6]: 45,176 cpm
